Results from patent publication US20180016620A1 (KITE PHARMA, published 2018).
No end group written: not given here.

Experiments:
[1] = biological target: T1, GSTSGSGKPGSGEG SEQ ID NO: 486 (also: biotin on N-terminus or on added C-terminal Lys, which not given here); test: ELISA: antibody captured on Protein G plate, biotinylated peptide, streptavidin-HRP, chemiluminescence; y axis 0 to 7000000 without unit
T1 construct: also called 18 mer lacking its 4 C-terminal residues
T1 peptide: GSTSGSGKPGSGEG
Description: (§1) The antibodies (i.e., antigen binding molecules) were epitope mapped via ELISA using the full length peptide, […] (SEQ ID NO:1), and variants truncated on either the N- or C-terminus and containing either a biotin moiety on the N-terminus, or a lysine residue with a biotin moiety on the C-terminus. The antibodies were captured in 96-well plate format using plates pre-coated with Protein G (Pierce). The plates were washed 6× in PBST buffer followed by incubation with target peptides. An additional 6× wash was performed with PBST and the antibodies were further incubated with streptavidin-HRP. Upon a final 6× wash in PBST, signal was detected and quantified via enhanced chemiluminescense kit (ECL, from GE Healthcare) and a Varioskan Flash plate reader (Thermo Fisher).

[2] = biological target: T2, full length 18 mer linker peptide GSTSGSGKPGSGEGSTKG (also: biotin on N-terminus or on added C-terminal Lys, which not given here); test: as above
T2 construct: Synthetic linker peptide; also called full-length linker peptide; Whitlow linker
T2 peptide: GSTSGSGKPGSGEGSTKG
Description: as §1

[3] = biological target: T3, GSGKPGSGEGSTKG SEQ ID NO: 489 (also: biotin on N-terminus or on added C-terminal Lys, which not given here); test: as above
T3 construct: also called 18 mer lacking its 4 N-terminal residues
T3 peptide: GSGKPGSGEGSTKG
Description: as §1

[4] = biological target: T4, GSTSGSGKPGSGEGST SEQ ID NO: 485 (also: biotin on N-terminus or on added C-terminal Lys, which not given here); test: as above
T4 construct: also called 18 mer lacking its 2 C-terminal residues
T4 peptide: GSTSGSGKPGSGEGST
Description: as §1

FL_peptide_OVA = biological target: T5, FL_peptide_OVA (also: conjugated to ovalbumin, site and chemistry not given here); test: ELISA as for the peptides of the figure; y axis 0 to 7000000 without unit
T5 construct: not shown: the ovalbumin carrier protein
T5 peptide: GSTSGSGKPGSGEGSTKG
Description: as §1

[5] = biological target: T6, SEQ ID NO: 490 GKPGSGEGSTKG (also: biotin on N-terminus or on added C-terminal Lys, which not given here); test: epitope mapping ELISA: antibody captured on Protein G plate, biotinylated peptide, streptavidin-HRP, chemiluminescence
T6 peptide: GKPGSGEGSTKG
Description: as §1

[6] = biological target: T7, SEQ ID NO: 485 GSTSGSGKPGSGEGST (also: biotin on N-terminus or on added C-terminal Lys, which not given here); test: as above
T7 peptide: GSTSGSGKPGSGEGST
Description: as §1

[7] = biological target: T8, SEQ ID NO: 497 SGKPGSGEGSTKG (also: biotin on N-terminus or on added C-terminal Lys, which not given here); test: as above
T8 peptide: SGKPGSGEGSTKG
Description: as §1

[8] = biological target: T9, SEQ ID NO: 496 GSTSGSGKPGSGE (also: biotin on N-terminus or on added C-terminal Lys, which not given here); test: as above
T9 peptide: GSTSGSGKPGSGE
Description: as §1

[9] = biological target: T10, SEQ ID NO: 489 GSGKPGSGEGSTKG (also: biotin on N-terminus or on added C-terminal Lys, which not given here); test: as above
T10 peptide: GSGKPGSGEGSTKG
Description: as §1

[10] = biological target: T11, SEQ ID NO: 486 GSTSGSGKPGSGEG (also: biotin on N-terminus or on added C-terminal Lys, which not given here); test: as above
T11 peptide: GSTSGSGKPGSGEG
Description: as §1

[11] = biological target: T12, GKPGSGEGSTKG SEQ ID NO: 490 (also: biotin on N-terminus or on added C-terminal Lys, which not given here); test: ELISA: antibody captured on Protein G plate, biotinylated peptide, streptavidin-HRP, chemiluminescence; y axis 0 to 7000000 without unit
T12 construct: also called 18 mer lacking its 6 N-terminal residues
T12 peptide: GKPGSGEGSTKG
Description: as §1

[12] = biological target: T13, SEQ ID NO: 498 KPGSGEGSTKG (also: biotin on N-terminus or on added C-terminal Lys, which not given here); test: epitope mapping ELISA: antibody captured on Protein G plate, biotinylated peptide, streptavidin-HRP, chemiluminescence
T13 peptide: KPGSGEGSTKG
Description: as §1

Measured: binding result

B1: Clone 8 anti-linker antibody (antibody, V domains shown)
VH: QSVEESGGRLVTPGTPLTLTCTASGFTISNLAIIWVRQAPGKGLEYIGDIDGRGDIYCATWAKGRFTISKTSTTLDLRFTSPTTEDTATYFCAVDGDGSGWGDFNFWGPGTLVTVSS
VL: AYDMTQTPASVEVAVGGTVSIKCQASQSISTALAWYQQKPGQPPKLLIYRASTLASGVSSRFKGSGSGTQFTLTISGVECDDAATYYCQQGWSTVNVDNVFGGGTEVVVRD
notes: Rabbit monoclonal from a hybridoma; also called Clone 8-4; 8-4
binds: [1] | [2] | [3] | [4] | FL_peptide_OVA | [5] | [6] | [7] | [8] | [9] | [10]

B2: Clone 16 anti-linker antibody (antibody, V domains shown)
VH: QSLEESGGRLVTPGTPLTLTCTVSGSDISSYHMGWVRQAPGKGLEYIGIIVSSGSAYYATWAKGRFTISRTSTTVDLKITSPTTEDSATYFCARNQYSGYGFSFWGPGTLVTVSS
VL: AVVLTQTPSPVSTAVGGTVTINCQSSHSVYYGDWLAWYQQKPGQPPKLLIYRASNLASGVPSRFKGSGSGTQFTLTISGVQCDDAATYYCLGGYDDDGETAFGGGTEVVVKD
notes: Rabbit monoclonal from a hybridoma; also called Clone 16-6; 16-6
binds: [1] | [2] | [3] | [4] | [11] | FL_peptide_OVA | [5] | [6] | [12] | [7] | [8] | [9] | [10]
